Consider 3 molecules from patent US20040023887A1 (published 2004).

Test [1] deals with T1, Soluble IGF-1R (R&D Systems, Cat. # 391-GR/CF) (human, UniProt P08069 31-935).
T1 construct: extracellular domain; the precursor is cleaved into alpha and beta subunits; also called sIGF-1R
Briefly: phage ELISA; IGF-1R ratio divided by IR ratio. For orientation: In an ELISA, binding on a coated surface is turned into a signal by an enzyme label.

Test [2] has as its target T1, Soluble IGF-1R (R&D Systems, Cat. # …). As to the kind of experiment: phage ELISA, receptor coated on plate; A405 over non-fat milk.
The target in test [3] is T2, Insulin receptor prepared according to Bass et al., 1996 (soluble IR-immunoglobulin chimera) (human, UniProt P06213 28-956).
T2 construct: extracellular domain; also called sIR-Fc; soluble IR (Bass construct); not shown: immunoglobulin constant domains replacing the transmembrane and intracellular domains
The test is described as above.

Test [4] deals with T3, soluble HIR ectodomain (sIR) (human, UniProt P06213-2 28-944, limits assumed).
T3 construct: extracellular domain
Briefly: FP competition, label FITC-RP9, sIR.

The target in test [5] is T4, soluble human insulin receptor-immunoglobulin heavy chain chimera (sIR-Fc) (human, UniProt P06213 28-956, limits assumed, Eu3+ (LANCE) labelled in the TR-FRET assays).
T4 construct: extracellular domain; also called HIR-immunoglobulin heavy chain chimera; not shown: immunoglobulin heavy chain constant domains
Briefly: FP competition, label FITC-RP9, sIR-Fc.

For test [6], the target named is T4, soluble human insulin …. As to the kind of experiment: TR-FRET competition, label b-RP9, Eu-sIR-Fc. A general note: Time-resolved FRET reads energy transfer from a long-lived donor to a nearby acceptor.
The target of test [7] is T4, soluble human insulin …. As to the kind of experiment: TR-FRET competition, label b-S175, Eu-sIR-Fc.
In test [8] the target is T5, human insulin receptor (HIR) (human, UniProt P06213-2 28-1370, limits assumed).
T5 construct: Also used for the WGA-purified recombinant human insulin receptor of the kinase assay
Briefly: radio-receptor assay, label 125I-insulin, HIR.

In test [9] the target is T6, human insulin receptor (HIR), purified from transfected cells after solubilization with Triton X-100 (human, UniProt P06213-2 28-1370, limits assumed).
T6 construct: mature
Briefly: competition with 125I-insulin on solubilized HIR, PEG precipitation.

B1: B6L-3-G5-IR (peptide)
peptide: AETSAQVGWQRLWSVWPGDHWSTLDPFYHKLSELLRESGA
notes: library tags and phage coat protein not included
B1: the IGF-1R/IR ratio comparison in test [1] came to 1.4 ratio. Also, in test [2], the “ratio over background (IGF-1R)” value is 2 fold over background. For the same molecule, in [3], the “ratio over background (IR)” value stood at 1.4 fold over background.
The IC50 is the concentration that gives 50% inhibition. A higher IC50 goes with weaker potency in that assay. Take GSLDESFYDWFERQLGKK (also called S371) [RP9]: the IC50 in test [4] is 0.03 nM; in test [5], 10 nM; in test [6] it was 42 nM; in test [7] it was 6 nM; in [8], 44 nM.

B2: S415 (peptide)
peptide: ESFYDWFERQLGKX
chain: ESFYDWFERQLGKX
modifications: not fully specified; C-terminus joined to chemical linker 23 of Table 3; C-C linked dimer
notes: Synthetic truncated RP9 homodimer
As a reminder, the Kd is the equilibrium constant for the complex coming apart. Read a low Kd as tighter binding. As for B2, in [9], the Kd amounted to 100 nM.
